Reference: patent publication US20110243941A1 (published 2011)
Substitutions are numbered along the chain they refer to. Names may count otherwise.

B1: chimeric 4-4-20 anti-fluorescein antibody, wild type Fc (antibody)
chain 1: not shown
chain 2: DVVMTQTPLSLPVSLGDQASISCRSSQSLVHSNGNTYLRWYLQKPGQSPKVLIYKVSNRFSGVPDRFSGSGSGTDFTLKISRVEAEDLGVYFCSQSTHVPWTFGGGTKLEIKRTVAAPSVFIFPPSDEQLKSGTASVVCLLNNFYPREAKVQWKVDNALQSGNSQESVTEQDSKDSTYSLSSTLTLSKADYEKHKVYACEVTHQGLSSPVTKSFNRGEC
B2: ch 4-4-20 E293V, Q295E, A327T (antibody)
chain: EPKSCDKTHTCPPCPAPELLGGPSVFLFPPKPKDTLMISRTPEVTCVVVDVSHEDPEVKFNWYVDGVEVHNAKTKPRVEEYNSTYRVVSVLTVLHQDWLNGKEYKCKVSNKTLPAPIEKTISKAKGQPREPQVYTLPPSREEMTKNQVSLTCLVKGFYPSDIAVEWESNGQPENNYKTTPPVLDSDGSFFLYSKLTVDKSRWQQGNVFSCSVMHEALHNHYTQKSLSLSPGK
B3: ch 4-4-20 Y319F, P352L, P396L (antibody)
chain: B2 chain with V78E, E80Q, Y104F, T112A, P137L, P181L

Experiments:
[1] = molecular target: T1, soluble dimeric FcγRIIB-Fc fusion protein (human, UniProt P31994 43-217); assay: ELISA
T1 construct: extracellular domain; also called FcRIIB-Fc; FcγRIIB-G2; not shown: hinge-CH2-CH3 domain of human IgG2
T1 sequence (looked up): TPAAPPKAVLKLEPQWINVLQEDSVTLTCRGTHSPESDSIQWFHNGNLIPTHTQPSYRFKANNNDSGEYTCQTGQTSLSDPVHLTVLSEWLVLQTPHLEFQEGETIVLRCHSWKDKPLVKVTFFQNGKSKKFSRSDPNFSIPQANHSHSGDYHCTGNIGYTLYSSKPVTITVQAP

[2] = molecular target: T1, soluble dimeric FcγRIIB-Fc fusion …; assay: BIAcore
[3] = molecular target: T2, FcγRIIIA 158V (human, UniProt P08637 17-208, limits assumed); assay: BIAcore, ch4-4-20
T2 construct: valine at 158; also called 3aV158; CD16A 158V
T2 sequence (P08637 17-208 F176V limits assumed): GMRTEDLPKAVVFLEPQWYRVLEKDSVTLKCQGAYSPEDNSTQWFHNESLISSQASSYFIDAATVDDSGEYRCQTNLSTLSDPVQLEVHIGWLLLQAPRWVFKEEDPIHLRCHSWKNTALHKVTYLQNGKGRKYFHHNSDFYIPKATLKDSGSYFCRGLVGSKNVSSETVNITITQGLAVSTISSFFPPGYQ

Row | ELISA, OD [1] [OD] | Kd [2] [nM] | koff [2] [s⁻¹] | Koff WT/Mut [3] | Binder
1 | 0.4 | 61.4 | 0.085 |  | B1
2 |  |  |  | 0.86 | B2
3 |  |  |  | 1.23 | B3
